Measured values: US20040038217

Tests used:
[1] = tested on: PNA-Caspase 3 dual-labeled peptide chimera: PNA-Linker-Cys His His His His His His Asp Glu Val Asp Ala Lys-(C18-spacer)-Cy3
[2] = tested on: biotinylated Caspase 3 peptide substrate with end-labeled fluorescent dye Cy5

Caspase 3
fluorescent Cy3/Cy5 signal ratio (Caspase 3 at 0 to 4 ng/µl) [1]: the fluorescent Cy3/Cy5 signal ratio decreases from approximately 1 to 0.6 | percentage of the residual assay intensity ratio relative to the negative control (PNA-peptide chimera III): 112.03% | percentage of the residual assay intensity ratio relative to the negative control (PNA-peptide chimera II): 82.35% | percentage of the residual assay intensity ratio relative to the negative control (PNA-peptide chimera I): 53.48% | Cy5 signal intensity at 1000 ms integration of uncut substrate (Caspase 3 at 8 to 0 microgram/ml) [2]: The Cy5 signal intensity at 1000 ms integration increased from about 2600 to 5200 units for a decreasing Caspase 3 concentration ranging from 8 to 0 microgram/ml

Caspase 6
percentage of the residual assay intensity ratio relative to the negative control (PNA-peptide chimera III): 79.08% | percentage of the residual assay intensity ratio relative to the negative control (PNA-peptide chimera II): 41.18% | percentage of the residual assay intensity ratio relative to the negative control (PNA-peptide chimera I): 91.80%

Caspase 8
percentage of the residual assay intensity ratio relative to the negative control (PNA-peptide chimera III): 59.89% | percentage of the residual assay intensity ratio relative to the negative control (PNA-peptide chimera II): 69.41% | percentage of the residual assay intensity ratio relative to the negative control (PNA-peptide chimera I): 73.77%
